Source: patent US20210403591A1 (OSSIANIX, published 2021)
Residue numbers refer to the chain shown, from its start. Like-named read-outs stand apart in the source and are kept apart here.

B1: 8D3 antibody (anti-mouse TfR-1 control; 8D3-hFc formatted antibody) (antibody, V domains shown)
VH: EVQLVESGGGLVQPGNSLTLSCVASGFTFSNYGMHWIRQAPKKGLEWIAMIYYDSSKMNYADTVKGRFTISRDNSKNTLYLEMNSLRSEDTAMYYCAVPTSHYVVDVWGQGVSVTVSS
VL: DIQMTQSPASLSASLEEIVTITCQASQDIGNWLAWYQQKPGKSPQLLIYGATSLADGVPSRFSGSRSGTQFSLKISRVQVEDIGIYYCLQAYNTPWTFGGGTKLELK
B2: Clone C VNAR-hFc fusion (Fc fusion, not shown: a dimerising Fc or GST)
chain: ARVDQTPQTITKETGESLTINCVLRDSNCALSSTYWYRKKSGSTNEENISKGGRYVETVNSGSKSFSLRINDLTVEDSGTYRCNVVQYPSYNNYFWCDVYGDGTAVTVN
notes: bivalent VNAR-Fc; also called Clone C-hFc
B3: Clone C variant 13 VNAR-hFc (Fc fusion, not shown: a dimerising Fc or GST)
chain: B2 chain with S90Q, Y91Q, N92D
notes: also called Clone C v13; Clone C var; 13
B4: Clone C variant 18 VNAR-hFc (Fc fusion, not shown: a dimerising Fc or GST)
chain: B2 chain with S90Q, N92P
notes: also called Clone C v18; Clone C var; 18

Key:
[1] = biological target: T1, purified mTfR1 mutant M2 (NAS) (mouse, UniProt Q62351 89-763); experiment: ELISA, plate coated with purified mTfR-1 mutant M2 (NAS), serial dilution of the binder; y axis Norm. Vmax OD at 650nm
T1 construct: also called G254A
T1 sequence (Q62351 other isoform, or with tags, fused parts or gaps mutant): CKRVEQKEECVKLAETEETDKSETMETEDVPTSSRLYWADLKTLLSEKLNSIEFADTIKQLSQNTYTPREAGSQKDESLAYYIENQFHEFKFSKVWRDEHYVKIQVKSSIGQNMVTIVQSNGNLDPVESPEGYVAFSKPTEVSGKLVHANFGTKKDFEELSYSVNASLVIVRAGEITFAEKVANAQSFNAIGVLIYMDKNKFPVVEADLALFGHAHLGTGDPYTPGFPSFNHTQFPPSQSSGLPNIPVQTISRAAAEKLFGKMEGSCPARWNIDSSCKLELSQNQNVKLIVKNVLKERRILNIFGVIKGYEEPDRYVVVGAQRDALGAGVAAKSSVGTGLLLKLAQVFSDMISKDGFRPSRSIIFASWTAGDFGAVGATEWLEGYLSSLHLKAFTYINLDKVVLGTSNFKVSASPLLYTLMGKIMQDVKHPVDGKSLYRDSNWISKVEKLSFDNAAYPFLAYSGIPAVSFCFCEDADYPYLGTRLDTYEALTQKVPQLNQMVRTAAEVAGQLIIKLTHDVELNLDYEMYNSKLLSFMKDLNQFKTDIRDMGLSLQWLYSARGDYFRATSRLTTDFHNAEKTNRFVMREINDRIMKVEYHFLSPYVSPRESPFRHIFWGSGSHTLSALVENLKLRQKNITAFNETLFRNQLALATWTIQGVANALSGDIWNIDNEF

[2] = biological target: T2, purified WT mTfR-1 (ELISA coat) (mouse, UniProt Q62351 89-763); experiment: ELISA, coated purified WT mTfR1
T2 sequence (Q62351 89-763): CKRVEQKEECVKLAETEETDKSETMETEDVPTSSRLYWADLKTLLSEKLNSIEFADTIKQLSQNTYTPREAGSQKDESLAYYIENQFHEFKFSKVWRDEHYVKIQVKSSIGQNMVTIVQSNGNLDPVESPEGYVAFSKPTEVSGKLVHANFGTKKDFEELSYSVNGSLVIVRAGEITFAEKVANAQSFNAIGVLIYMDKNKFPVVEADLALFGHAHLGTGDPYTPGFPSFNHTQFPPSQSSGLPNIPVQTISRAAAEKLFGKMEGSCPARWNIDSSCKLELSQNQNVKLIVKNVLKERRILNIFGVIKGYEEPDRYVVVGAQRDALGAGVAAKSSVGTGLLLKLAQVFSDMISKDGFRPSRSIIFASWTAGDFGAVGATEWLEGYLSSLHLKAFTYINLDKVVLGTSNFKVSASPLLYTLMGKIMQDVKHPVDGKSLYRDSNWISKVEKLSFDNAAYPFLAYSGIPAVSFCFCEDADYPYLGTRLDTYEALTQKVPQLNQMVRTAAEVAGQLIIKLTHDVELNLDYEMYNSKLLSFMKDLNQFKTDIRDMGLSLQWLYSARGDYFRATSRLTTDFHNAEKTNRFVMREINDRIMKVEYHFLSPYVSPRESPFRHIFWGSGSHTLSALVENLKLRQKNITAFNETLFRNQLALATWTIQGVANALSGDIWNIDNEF
Protocol: Serial dilutions the VNAR-Fc fusion protein in blocking buffer (PBS-0.1% Tween+2.5% milk) were exposed to pre-blocked Nunc Maxisorp 96-well plates coated with the M1, M2 and M3 mutants at 1 μg/mL. After washing in PBS-0.1% Tween-20, binding of Clone C-hFc fusion was detected using an anti-human IgG (Fc specific) peroxidase antibody (Sigma-Aldrich) and the plates were developed using the chromogenic substrate TMB. Absorbance at 450 nm was recorded using an Envision multi-well reader (Perkin Elmer) and EC50s were calculated by fitting curves (non-linear regression) using GraphPad Prism®.
The binding of Clone C compared to the 8D3 antibody was tested on purified WT mTfR1 in addition to the three mutants by ELISA (FIG. 26).

[3] = biological target: T1, purified mTfR1 mutant M2 (NAS); experiment: ELISA, coated purified mTfR-1
[4] = biological target: T3, purified mTfR1 mutant M3 (NGA) (mouse, UniProt Q62351 89-763); experiment: ELISA, coated purified mTfR-1
T3 construct: also called S255A
T3 sequence (Q62351 other isoform, or with tags, fused parts or gaps mutant): as the sequence (Q62351 89-763) above, with S167A counted along it

[5] = biological target: T4, purified mTfR1 mutant M1 (AGS) (mouse, UniProt Q62351 89-763); experiment: ELISA, coated purified mTfR-1
T4 construct: also called N253A
T4 sequence (Q62351 other isoform, or with tags, fused parts or gaps mutant): as the sequence (Q62351 89-763) above, with N165A counted along it

[6] = biological target: T2, purified WT mTfR-1 (ELISA coat); experiment: ELISA, coated purified mTfR-1
[7] = biological target: T1, purified mTfR1 mutant M2 (NAS); experiment: ELISA, coated purified mTfR-1; remark: listed apart in the source
[8] = biological target: T3, purified mTfR1 mutant M3 (NGA); experiment: ELISA, coated purified mTfR-1; remark: listed apart in the source
[9] = biological target: T4, purified mTfR1 mutant M1 (AGS); experiment: ELISA, coated purified mTfR-1; remark: listed apart in the source
[10] = biological target: T2, purified WT mTfR-1 (ELISA coat); experiment: ELISA, coated purified mTfR-1; remark: listed apart in the source

Row | EC50 (read off the curve) [1] [nM] | EC50 [2] [nM] | EC50 [3] [nM] | EC50 [4] [nM] | EC50 [5] [nM] | EC50 [6] [nM] | EC50 [7] [nM] | EC50 [8] [nM] | EC50 [9] [nM] | EC50 [10] [nM] | Binder
1 | ~4 | 11.1 | 0.33 | 0.51 | 0.35 | 0.49 |  |  |  |  | B1
2 |  | 65.4 |  |  |  |  |  |  |  |  | B2
3 |  |  |  |  |  |  | 13 | 0.79 | 1.1 | 0.8 | B3
4 |  |  |  |  |  |  | 200 | 2.6 | 5.9 | 0.69 | B4
